Measured values as given in patent US20050064533.

Columns and labels:
[1] = molecular target: recombinant C-terminal 90 amino acids of human HIF-1a, tyrosine (Y) of the hydroxylation motif changed to alanine, Q16665
[2] = molecular target: recombinant C-terminal 90 amino acids of human HIF-1a, C of the hydroxylation motif changed to alanine, Q16665
[3] = molecular target: recombinant C-terminal 90 amino acids of human HIF-1a, valine preceding the target asparagine changed to alanine, Q16665
[4] = molecular target: recombinant C-terminal 90 amino acids of human HIF-1a, conserved G 5 amino acids C-terminal to the target asparagine changed to alanine, Q16665
Chain of recombinant C-terminal 90 amino acids of human HIF-1a, conserved G 5 amino acids C-terminal to the target asparagine changed to alanine, Q16665 (Q16665 other isoform, or with tags, fused parts or gaps): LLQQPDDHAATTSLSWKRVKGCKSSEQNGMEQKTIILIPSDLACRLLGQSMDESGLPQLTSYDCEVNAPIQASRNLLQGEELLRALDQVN

[5] = molecular target: recombinant C-terminal 90 amino acids of human HIF-1a, glutamic acid (E) of the hydroxylation motif changed to alanine, Q16665
Chain of recombinant C-terminal 90 amino acids of human HIF-1a, glutamic acid (E) of the hydroxylation motif changed to alanine, Q16665 (Q16665 other isoform, or with tags, fused parts or gaps): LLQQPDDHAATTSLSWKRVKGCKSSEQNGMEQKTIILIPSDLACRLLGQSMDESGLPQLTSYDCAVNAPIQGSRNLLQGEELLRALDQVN

[6] = molecular target: recombinant C-terminal 90 amino acids of human HIF-1a, wild type, Q16665
Chain of recombinant C-terminal 90 amino acids of human HIF-1a, wild type, Q16665 (Q16665 737-826): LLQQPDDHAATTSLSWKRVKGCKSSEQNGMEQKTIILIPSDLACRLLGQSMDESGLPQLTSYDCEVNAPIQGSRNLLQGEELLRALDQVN

[7] = molecular target: recombinant C-terminal 90 amino acids of human HIF-1a, D of the hydroxylation motif changed to alanine, Q16665
Chain of recombinant C-terminal 90 amino acids of human HIF-1a, D of the hydroxylation motif changed to alanine, Q16665 (Q16665 737-826 D799A): as the sequence (Q16665 737-826) above, with D63A counted along it

Chain of recombinant C-terminal 90 amino acids of human HIF-1a, tyrosine (Y) of the hydroxylation motif changed to alanine, Q16665 (Q16665 737-826 Y798A): as the sequence (Q16665 737-826) above, with Y62A counted along it
Chain of recombinant C-terminal 90 amino acids of human HIF-1a, valine preceding the target asparagine changed to alanine, Q16665 (Q16665 other isoform, or with tags, fused parts or gaps): as the sequence (Q16665 737-826) above, with V66A counted along it
Chain of recombinant C-terminal 90 amino acids of human HIF-1a, C of the hydroxylation motif changed to alanine, Q16665 (Q16665 737-826 C800A): as the sequence (Q16665 737-826) above, with C64A counted along it

B1: MBP (maltose binding protein) fused to wild type HIF Asparagine Hydroxylase (HNH) (protein)
chain: MAATAAEAVASGSGEPREEAGALGPAWDESQLRSYSFPTRPIPRLSQSDPRAEELIENEEPVVLTDTNLVYPALKWDLEYLQENIGNGDFSVYSASTHKFLYYDEKKMANFQNFKPRSNREEMKFHEFVEKLQDIQQRGGEERLYLQQTLNDTVGRKIVMDFLGFNWNWINKQQGKRGWGQLTSNLLLIGMEGNVTPAHYDEQQNFFAQIKGYKRCILFPPDQFECLYPYPVHHPCDRQSQVDFDNPDYERFPNFQNVVGYETVVGPGDVLYIPMYWWHHIESLLNGGITITVNFWYKGAPTPKRIEYPLKAHQKVAIMRNIEKMLGEALGNPQEVGPLLNTMIKGRYN
hydroxylation in an in vitro hydroxylation assay [1]: Substituting alanine in place of tyrosine (Y) has little effect | hydroxylation in an in vitro hydroxylation assay [2]: an up to 50% decrease in hydroxylation of the target aspargine | hydroxylation in an in vitro hydroxylation assay [3]: altering this valine to alanine results in very low levels of hydroxylation | hydroxylation in an in vitro hydroxylation assay [4]: an approximately 50% decrease in hydroxylation | hydroxylation in an in vitro hydroxylation assay [5]: The glutamic acid (E) residue is more important or efficient hydroxylation than D or C | hydroxylation assessed by counting liberated 14CO2 [6]: the degree of hydroxylation for each mutant normalised to the level observed for the wild type HIF-1α CAD sequence | hydroxylation in an in vitro hydroxylation assay [7]: an up to 50% decrease in hydroxylation of the target aspargine
